# Test results: patent US20170183383A1 (JIANG XIANXING, published 2017)
# Non-standard residues stand in square brackets, D forms with d. Groups on a side chain read outwards from the residue. Primed or numbered codes have the meaning given here. No end group written: not given here. *: point of attachment. C18 diacid = O=C(O)CCCCCCCCCCCCCCCCC(=O)*; Palmitoyl = CCCCCCCCCCCCCCCC(=O)*; PEG2′ = not defined here; Aib = CC(C)(N)C(=O)O
# Target: human glucagon receptor (human, UniProt P47871 26-477)
# Assay: cell-based or functional assay
row,Binder,"GCGR (EC50, nM), CRE-luciferase in HEK-293 cells"
1,H[dS]QGTFTSDYSKYLDSK([PEG2′-PEG2′-Glu-C18 diacid])AAHDFVEWLLRA-NH2 [Compound 1],0.54 nM
2,H[dS]QGTFTSDYSKYLDSK([PEG2′-PEG2′-Glu-C18 diacid])AAHDFVEWLLNGGPSSGAPPPS-NH2 [Compound 3],1.02 nM
3,HSQGTFTSDYSKYLDSRRAQDFVQWLMNTKRNKNNIA (ligand) [Oxyntomodulin],6.2 nM
4,H[Aib]QGTFTSDK([PEG2′-PEG2′-Glu-Palmitoyl])SKYLD[Aib]RRAQDFVQWLLDGGPSSGAPPPS-NH2 [Compound 21],0.66 nM
5,H[Aib]QGTFTSDK([PEG2′-PEG2′-Glu-C18 diacid])SKYLDERRAQDFVQWLLDGGPSSGAPPPS-NH2 [Compound 20],0.48 nM
6,H[dS]QGTFTSDYSK([PEG2′-PEG2′-C18 diacid])KLD[Aib]RRAQDFVQWLMNTGGPSSGAPPPS-NH2 [Compound 16],0.2 nM
7,H[dS]QGTFTSDYSK([PEG2′-PEG2′-Palmitoyl])KLD[Aib]RRAQDFVQWLMNTGGPSSGAPPPS-NH2 [Compound 15],0.6 nM
8,H[dS]QGTFTSDYSKYLD[Aib]K([PEG2′-PEG2′-Glu-C18 diacid])RAQDFVQWLMNTGGPSSGAPPPS-NH2 [Compound 14],0.19 nM
9,H[dS]QGTFTSDYSKYLDK([PEG2′-PEG2′-Glu-C18 diacid])RRAQDFVQWLMNTGGPSSGAPPPS-NH2 [Compound 11],0.18 nM
10,H[dS]QGTFTSDYSKYLDEKAAK([PEG2′-PEG2′-Glu-C18 diacid])EFIEWLLNGGPSSGAPPPS-NH2 [Compound 4],0.39 nM
11,H[dS]QGTFTSDYSK([PEG2′-PEG2′-Glu-C18 diacid])KLD[Aib]RRAQDFVQWLMNTGGPSSGAPPPS-NH2 [Compound 18],0.18 nM
12,H[dS]QGTFTSDYSK([PEG2′-PEG2′-Glu-Palmitoyl])KLD[Aib]RRAQDFVQWLMNTGGPSSGAPPPS-NH2 [Compound 17],0.58 nM
13,H[dS]QGTFTSDYSKYLD[Aib]K([PEG2′-PEG2′-C18 diacid])RAQDFVQWLMNTGGPSSGAPPPS-NH2 [Compound 12],0.15 nM
14,H[dS]QGTFTSDYSKYLD[Aib]K([PEG2′-PEG2′-Glu-Palmitoyl])RAQDFVQWLMNTGGPSSGAPPPS-NH2 [Compound 13],0.16 nM
15,H[dS]QGTFTSDK([PEG2′-PEG2′-Palmitoyl])SKYLD[Aib]RRAQDFVQWLMNTGGPSSGAPPPS-NH2 [Compound 5],0.43 nM
16,H[dS]QGTFTSDYSKYLDEKAAK([PEG2′-PEG2′-Glu-Palmitoyl])EFIEWLLNGGPSSGAPPPS-NH2 [Compound 24],0.58 nM
17,H[dS]QGTFTSDYSKYLDK([PEG2′-PEG2′-C18 diacid])RRAQDFVQWLMNTGGPSSGAPPPS-NH2 [Compound 9],0.18 nM
18,H[Aib]QGTFTSDK([PEG2′-PEG2′-Glu-C18 diacid])SKYLD[Aib]RRAQDFVQWLLDGGPSSGAPPPS-NH2 [Compound 22],0.32 nM
19,H[dS]QGTFTSDK([PEG2′-PEG2′-Glu-Palmitoyl])SKYLD[Aib]RRAQDFVQWLMNTGGPSSGAPPPS-NH2 [Compound 7],0.34 nM
20,H[dS]QGTFTSDYSKYLDEKAAK([PEG2′-PEG2′-Glu-C18 diacid])EFIEWLLRA-NH2 [Compound 2],2.8 nM
21,H[dS]QGTFTSDK([PEG2′-PEG2′-C18 diacid])SKYLD[Aib]RRAQDFVQWLMNTGGPSSGAPPPS-NH2 [Compound 6],0.33 nM
22,H[dS]QGTFTSDK([PEG2′-PEG2′-Glu-C18 diacid])SKYLD[Aib]RRAQDFVQWLMNTGGPSSGAPPPS-NH2 [Compound 8],0.18 nM
23,H[dS]QGTFTSDYSKYLDEKAAK([PEG2′-PEG2′-Palmitoyl])EFIEWLLNGGPSSGAPPPS-NH2 [Compound 23],0.43 nM
24,H[Aib]QGTFTSDK([PEG2′-PEG2′-Glu-Palmitoyl])SKYLDERRAQDFVQWLLDGGPSSGAPPPS-NH2 [Compound 19],0.56 nM
25,H[dS]QGTFTSDYSKYLDK([PEG2′-PEG2′-Glu-Palmitoyl])RRAQDFVQWLMNTGGPSSGAPPPS-NH2 [Compound 10],0.11 nM

# Target: human glucagon-like peptide-1 receptor (human, UniProt P43220 24-463)
# Assay: cell-based or functional assay
# human glucagon-like peptide-1 receptor, sequence (P43220 24-463): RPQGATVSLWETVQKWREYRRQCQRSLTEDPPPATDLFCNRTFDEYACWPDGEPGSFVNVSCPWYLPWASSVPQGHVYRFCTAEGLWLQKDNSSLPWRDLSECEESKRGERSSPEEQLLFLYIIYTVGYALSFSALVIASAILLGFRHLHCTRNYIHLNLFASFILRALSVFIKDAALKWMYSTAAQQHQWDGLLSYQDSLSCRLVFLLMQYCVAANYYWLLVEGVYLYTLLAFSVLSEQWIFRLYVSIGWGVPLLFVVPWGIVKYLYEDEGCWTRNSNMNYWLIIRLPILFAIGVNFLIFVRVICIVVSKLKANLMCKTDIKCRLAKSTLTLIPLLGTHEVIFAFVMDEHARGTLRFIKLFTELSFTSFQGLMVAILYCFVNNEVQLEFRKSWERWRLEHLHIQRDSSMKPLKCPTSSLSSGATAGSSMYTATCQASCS
row,Binder,"GLP-1R (EC50, nM), CRE-luciferase in HEK-293 cells"
1,H[dS]QGTFTSDYSKYLDSK([PEG2′-PEG2′-Glu-C18 diacid])AAHDFVEWLLRA-NH2 [Compound 1],0.23 nM
2,H[dS]QGTFTSDYSKYLDSK([PEG2′-PEG2′-Glu-C18 diacid])AAHDFVEWLLNGGPSSGAPPPS-NH2 [Compound 3],0.59 nM
3,H[Aib]QGTFTSDK([PEG2′-PEG2′-Glu-Palmitoyl])SKYLD[Aib]RRAQDFVQWLLDGGPSSGAPPPS-NH2 [Compound 21],0.15 nM
4,H[Aib]QGTFTSDK([PEG2′-PEG2′-Glu-C18 diacid])SKYLDERRAQDFVQWLLDGGPSSGAPPPS-NH2 [Compound 20],0.09 nM
5,H[dS]QGTFTSDYSK([PEG2′-PEG2′-C18 diacid])KLD[Aib]RRAQDFVQWLMNTGGPSSGAPPPS-NH2 [Compound 16],0.6 nM
6,H[dS]QGTFTSDYSK([PEG2′-PEG2′-Palmitoyl])KLD[Aib]RRAQDFVQWLMNTGGPSSGAPPPS-NH2 [Compound 15],1.5 nM
7,H[dS]QGTFTSDYSKYLD[Aib]K([PEG2′-PEG2′-Glu-C18 diacid])RAQDFVQWLMNTGGPSSGAPPPS-NH2 [Compound 14],0.4 nM
8,H[dS]QGTFTSDYSKYLDK([PEG2′-PEG2′-Glu-C18 diacid])RRAQDFVQWLMNTGGPSSGAPPPS-NH2 [Compound 11],0.15 nM
9,H[dS]QGTFTSDYSKYLDEKAAK([PEG2′-PEG2′-Glu-C18 diacid])EFIEWLLNGGPSSGAPPPS-NH2 [Compound 4],0.13 nM
10,H[dS]QGTFTSDYSK([PEG2′-PEG2′-Glu-C18 diacid])KLD[Aib]RRAQDFVQWLMNTGGPSSGAPPPS-NH2 [Compound 18],0.76 nM
11,H[dS]QGTFTSDYSK([PEG2′-PEG2′-Glu-Palmitoyl])KLD[Aib]RRAQDFVQWLMNTGGPSSGAPPPS-NH2 [Compound 17],0.68 nM
12,H[dS]QGTFTSDYSKYLD[Aib]K([PEG2′-PEG2′-C18 diacid])RAQDFVQWLMNTGGPSSGAPPPS-NH2 [Compound 12],0.32 nM
13,H[dS]QGTFTSDYSKYLD[Aib]K([PEG2′-PEG2′-Glu-Palmitoyl])RAQDFVQWLMNTGGPSSGAPPPS-NH2 [Compound 13],0.44 nM
14,H[dS]QGTFTSDK([PEG2′-PEG2′-Palmitoyl])SKYLD[Aib]RRAQDFVQWLMNTGGPSSGAPPPS-NH2 [Compound 5],0.06 nM
15,H[dS]QGTFTSDYSKYLDEKAAK([PEG2′-PEG2′-Glu-Palmitoyl])EFIEWLLNGGPSSGAPPPS-NH2 [Compound 24],0.16 nM
16,H[dS]QGTFTSDYSKYLDK([PEG2′-PEG2′-C18 diacid])RRAQDFVQWLMNTGGPSSGAPPPS-NH2 [Compound 9],0.52 nM
17,H[Aib]QGTFTSDK([PEG2′-PEG2′-Glu-C18 diacid])SKYLD[Aib]RRAQDFVQWLLDGGPSSGAPPPS-NH2 [Compound 22],0.06 nM
18,H[dS]QGTFTSDYSKYLDEKAAK([PEG2′-PEG2′-Glu-C18 diacid])EFIEWLLRA-NH2 [Compound 2],0.39 nM
19,H[dS]QGTFTSDK([PEG2′-PEG2′-C18 diacid])SKYLD[Aib]RRAQDFVQWLMNTGGPSSGAPPPS-NH2 [Compound 6],0.1 nM
20,H[dS]QGTFTSDK([PEG2′-PEG2′-Glu-C18 diacid])SKYLD[Aib]RRAQDFVQWLMNTGGPSSGAPPPS-NH2 [Compound 8],0.2 nM
21,H[dS]QGTFTSDYSKYLDEKAAK([PEG2′-PEG2′-Palmitoyl])EFIEWLLNGGPSSGAPPPS-NH2 [Compound 23],0.13 nM
22,H[Aib]QGTFTSDK([PEG2′-PEG2′-Glu-Palmitoyl])SKYLDERRAQDFVQWLLDGGPSSGAPPPS-NH2 [Compound 19],0.14 nM
23,H[dS]QGTFTSDYSKYLDK([PEG2′-PEG2′-Glu-Palmitoyl])RRAQDFVQWLMNTGGPSSGAPPPS-NH2 [Compound 10],0.35 nM
